From article PMC7496768, “Understanding Substrate Selectivity of Phoslactomycin Polyketide Synthase by Using Reconstituted in Vitro Systems” (Chembiochem, 2020) come the findings set out here.

Series [1] has as its system T1, CC(C)(COP(=O)(O)OP(=O)(O)OC[C@H]1O[C@@H](n2cnc3c(N)ncnc32)[C@H](O)[C@@H]1OP(=O)(O)O)[C@@H](O)C(=O)NCCC(=O)NCCSC(=O)CC(=O)O.
T1 construct: ketosynthase-acyltransferase (KS-AT) didomain of PnC, recombinant, purified
In words: SucC/SucD - pyruvate kinase/lactate dehydrogenase coupled assay of CoA release. In kind it is biochemical, Streptomyces platensis. To be noted: hydrolysis. From the text:
(§1) SucC/SucD - pyruvate kinase/lactate dehydrogenase coupled assay of CoA release on PnC_KS-AT

The subject of series [2] is T2, CC[C@@H](C(=O)O)C(=O)SCCNC(=O)CCNC(=O)[C@H](O)C(C)(C)COP(=O)(O)OP(=O)(O)OC[C@H]1O[C@@H](n2cnc3c(N)ncnc32)[C@H](O)[C@@H]1OP(=O)(O)O.
T2 construct: ketosynthase-acyltransferase (KS-AT) didomain of PnC, recombinant, purified
The description is as above. The class given is biochemical, Streptomyces platensis. To be noted: hydrolysis.
Excerpt: as §1

The test system of series [3] is T3, CCCC[C@@H](C(=O)O)C(=O)SCCNC(=O)CCNC(=O)[C@H](O)C(C)(C)COP(=O)(O)OP(=O)(O)OC[C@H]1O[C@@H](n2cnc3c(N)ncnc32)[C@H](O)[C@@H]1OP(=O)(O)O.
T3 construct: ketosynthase-acyltransferase (KS-AT) didomain of PnC, recombinant, purified
The series is described as above. To be noted: hydrolysis. In kind it is biochemical, Streptomyces platensis.
Excerpt: as §1

The test system of series [4] is T4, C[C@@H](C(=O)O)C(=O)SCCNC(=O)CCNC(=O)[C@H](O)C(C)(C)COP(=O)(O)OP(=O)(O)OC[C@H]1O[C@@H](n2cnc3c(N)ncnc32)[C@H](O)[C@@H]1OP(=O)(O)O.
T4 construct: ketosynthase-acyltransferase (KS-AT) didomain of PnC, recombinant, purified
Described as above. In kind it is biochemical, Streptomyces platensis. To be noted: hydrolysis.
Excerpt: as §1

In series [5] the test system is T5, CCCCCC[C@@H](C(=O)O)C(=O)SCCNC(=O)CCNC(=O)[C@H](O)C(C)(C)COP(=O)(O)OP(=O)(O)OC[C@H]1O[C@@H](n2cnc3c(N)ncnc32)[C@H](O)[C@@H]1OP(=O)(O)O.
T5 construct: ketosynthase-acyltransferase (KS-AT) didomain of PnC, recombinant, purified
The description is as above. In kind it is biochemical, Streptomyces platensis. The settings on record: hydrolysis.
Excerpt: as §1

The test system of series [6] is T6, CC(C)CC[C@@H](C(=O)O)C(=O)SCCNC(=O)CCNC(=O)[C@H](O)C(C)(C)COP(=O)(O)OP(=O)(O)OC[C@H]1O[C@@H](n2cnc3c(N)ncnc32)[C@H](O)[C@@H]1OP(=O)(O)O.
T6 construct: ketosynthase-acyltransferase (KS-AT) didomain of PnC, recombinant, purified
The series is described as above. The class given is biochemical, Streptomyces platensis. To be noted: hydrolysis.
Excerpt: as §1

In series [7] the test system is T7, CC(C)(COP(=O)(O)OP(=O)(O)OC[C@H]1O[C@@H](n2cnc3c(N)ncnc32)[C@H](O)[C@@H]1OP(=O)(O)O)[C@@H](O)C(=O)NCCC(=O)NCCSC(=O)CC(=O)O.
T7 construct: KS-AT didomain of PnB second module (Pn PKS module 3), recombinant, purified
The series is described as above. In kind it is biochemical, Streptomyces platensis. The settings on record: hydrolysis.

Series [8] has the same test system. As to the kind of experiment: purified protein, by the assay type. The settings on record: pH 7.4; 30.0 °C. Details: SucC/SucD-coupled CoA-SH release assay, NADH absorbance 340 nm, apparent KM for transacylation to ACP. The method, then:
(§2) Acyltransferase steady state kinetic assay. The assay buffer (200 mM Tris, glycerol 5%v/v, 20 mM MgCl2, pH 7.4) was used to set up all other solutions for this assay. Four master mixes (MM1 to MM4) in 4x concentration were prepared. For MM1 containing the KS-AT proteins (KS-AT or KS-ATS->A mutants), the enzymes were adjusted to 2 µM (for transacylation) or to 4 µM (for hydrolysis) with assay buffer additionally containing 1 mM DTT and 0.1 mg/mL BSA. For MM2 highly pure and concentrated ACP were adjusted to 1600 µM concentration with the assay buffer. Substrate acyl-CoA containing MM3 was prepared with the assay buffer in varying substrate concentrations ranging from (4x concentration indicated here) 1 µM to 1 mM. MM4 contained 1.6 mM NADH, 20 mM ATP, 30 mM succinate, 10 mM phosphoenolpyruvate (stock solutions should be resuspended in assay buffer, or Tris 200 mM, pH 7.4). First, these compounds were mixed and assay buffer was added, leaving volume for Pyruvate Kinase/Lactic Dehydrogenase (PK/LDH), SucC and SucD. After mixing of the compounds, the enzymes were added to MM4 like following: 0.06 mM SucC, 0.06 mM SucD and 20% v/v of PK/LDH (Sigma-Aldrich) (40 µL PK/LDH for 200 µL MM4). To measure transacylation 25 µL MM3, 25 µL MM4, 25 µL MM2 were mixed and incubated 30 °C for one minute. The reaction was started using 25 µL MM1. To measure hydrolysis 25 µL MM3, 25 µL MM4, 25 µL assay buffer were mixed, incubated at 30 °C for one minute. The reaction was started with 25 µL MM1. In both cases after starting the reaction, the mixture was immediately transferred into a 1 cm quartz cuvette, preheated to 30 °C and the absorption was monitored at 340 nm with a Cary 60 UV vis (Agilent technologies). The reactions were measured in three to four technical replicates. Simultaneous to 16 Scheme S1: Steady state kinetic assay, relying on purified proteins. KS-AT didomains and standalone ACPs are used. Upon covalent binding of the acyl-residue to the AT, CoA-SH is released. With no ACP acceptor available, the acyl-residue is subsequently hydrolyzed by nucleophilic attack of water and the AT can bind a new acyl-residue. If holo-ACP is available, the acyl-residue is transferred and the AT can bind a new acyl-residue. Free CoA-SH is converted to succinyl-CoA by E. coli SucC/SucD. In this reaction ADP is produced, which can be used by pyruvate kinase/lactic dehydrogenase (PK/LDH) under NADH consumption. For Michaelis Menten plots with data collected with this assay refer to Figure S6. With the SucC/SucD‐based assay we determined kinetic parameters of PnB_KS‐AT1, PnB_KS‐AT2, PnC_KS‐AT and PnD_KS‐AT for hydrolysis and transacylation (Table S3, Figure S7). As negative control AT catalytic knockouts were used. […] These measurements were independently confirmed by mass spectrometric analysis of acylated ACPs, in which we exclusively detected malonyl‐ACP formation (Tables S1 and S4). […] K M between 4 μM to 11 μM. Rates for transacylation were between 10‐ to 35‐ fold higher (app. k cat of 28 min^−1–140 min^−1) at 2.5 to 7.7 fold higher catalytic efficiency (Table S3).

The test system of series [9] is T8, CC(C)(COP(=O)(O)OP(=O)(O)OC[C@H]1O[C@@H](n2cnc3c(N)ncnc32)[C@H](O)[C@@H]1OP(=O)(O)O)[C@@H](O)C(=O)NCCC(=O)NCCSC(=O)CC(=O)O.
T8 construct: KS-AT didomain of PnD, recombinant, purified
As to the kind of experiment: SucC/SucD - pyruvate kinase/lactate dehydrogenase coupled assay of CoA release. In kind it is biochemical, Streptomyces platensis. The settings on record: hydrolysis.

The test system is the same in series [10]. As to the kind of experiment: purified protein, by the assay type. Details: SucC/SucD-coupled CoA-SH release assay, NADH absorbance 340 nm, apparent KM for transacylation to ACP. The settings on record: pH 7.4; 30.0 °C. The method, then: as §2
Series [11] has as its system T9, CC(C)(COP(=O)(O)OP(=O)(O)OC[C@H]1O[C@@H](n2cnc3c(N)ncnc32)[C@H](O)[C@@H]1OP(=O)(O)O)[C@@H](O)C(=O)NCCC(=O)NCCSC(=O)CC(=O)O.
T9 construct: KS-AT didomain of PnB first module (Pn PKS module 2), recombinant, purified
In words: SucC/SucD - pyruvate kinase/lactate dehydrogenase coupled assay of CoA release. In kind it is biochemical, Streptomyces platensis. To be noted: hydrolysis.

Series [12] shares this test system. As to the kind of experiment: purified protein, by the assay type. Details: SucC/SucD-coupled CoA-SH release assay, NADH absorbance 340 nm, apparent KM for transacylation to ACP. The settings on record: pH 7.4; 30.0 °C. The method, then: as §2

With PnC_KS-AT (Streptomyces platensis), the Km in series [1] is 53 ± 41 µM; in series [2], 6 ± 1.8 µM; in [3], 6.2 ± 1.4 µM; in series [4] it was 73 ± 33 µM; in series [5], 19 ± 15.5 µM; in [6], 20 ± 6.7 µM. Moreover, the kcat in series [1] stood at 0.01 ± 0.0025 s⁻¹; in [2], 0.015 ± 0.001 s⁻¹; in series [3], 0.0117 ± 0.000667 s⁻¹; in series [4], 0.0233 ± 0.005 s⁻¹; in [5], 0.00667 ± 0.00133 s⁻¹; in series [6], 0.0133 ± 0.00133 s⁻¹. Moreover, the kcat/Km in [1] is 167 M⁻¹ s⁻¹; in [2] it was 2500 M⁻¹ s⁻¹; in series [3] it was 1830 M⁻¹ s⁻¹; in series [4], 333 M⁻¹ s⁻¹; in series [5] it was 333 M⁻¹ s⁻¹; in series [6], 667 M⁻¹ s⁻¹.
PnB_KS-AT2 (Streptomyces platensis): the Km in series [7] came out at 5.2 ± 0.8 µM; in series [8], 16 ± 1.7 µM. For the same substance, the kcat was 0.05 ± 0.00233 s⁻¹ in [7] and 1.23 ± 0.0333 s⁻¹ in series [8].
Turning to PnD_KS-AT (Streptomyces platensis), the Km in [9] amounted to 11.5 ± 3.3 µM; in series [10], 44 ± 7.2 µM. Moreover, the kcat is 0.05 ± 0.0033 s⁻¹ in [9] and 0.467 ± 0.03 s⁻¹ in series [10].
In the case of PnB_KS-AT1 (Streptomyces platensis), in series [11], the Michaelis constant (Km) was 4.3 ± 0.8 µM and the kcat came out at 0.067 ± 0.0025 s⁻¹. Also, in series [12], the Km turned out to be 27 ± 2.6 µM, the kcat was 2.33 ± 0.0717 s⁻¹ and the kcat/Km turned out to be 86700 M⁻¹ s⁻¹.
